According to CN113840601A (dated 2021):

What was measured:
[1] = target: T1, 小鼠EGFR (mouse EGFR) (mouse, UniProt Q01279 25-1210, limits assumed); experiment: not described; stated in the results of the xenograft example as the reason why tolerability could not be assessed
T1 construct: Endogenous mouse protein in the host animals; no construct described

[2] = target: T2, 小鼠c-Met (mouse c-Met) (mouse, UniProt P16056 25-1379, limits assumed); experiment: as above
T2 construct: Endogenous mouse protein in the host animals; no construct described
T2 sequence (P16056 25-1379 limits assumed): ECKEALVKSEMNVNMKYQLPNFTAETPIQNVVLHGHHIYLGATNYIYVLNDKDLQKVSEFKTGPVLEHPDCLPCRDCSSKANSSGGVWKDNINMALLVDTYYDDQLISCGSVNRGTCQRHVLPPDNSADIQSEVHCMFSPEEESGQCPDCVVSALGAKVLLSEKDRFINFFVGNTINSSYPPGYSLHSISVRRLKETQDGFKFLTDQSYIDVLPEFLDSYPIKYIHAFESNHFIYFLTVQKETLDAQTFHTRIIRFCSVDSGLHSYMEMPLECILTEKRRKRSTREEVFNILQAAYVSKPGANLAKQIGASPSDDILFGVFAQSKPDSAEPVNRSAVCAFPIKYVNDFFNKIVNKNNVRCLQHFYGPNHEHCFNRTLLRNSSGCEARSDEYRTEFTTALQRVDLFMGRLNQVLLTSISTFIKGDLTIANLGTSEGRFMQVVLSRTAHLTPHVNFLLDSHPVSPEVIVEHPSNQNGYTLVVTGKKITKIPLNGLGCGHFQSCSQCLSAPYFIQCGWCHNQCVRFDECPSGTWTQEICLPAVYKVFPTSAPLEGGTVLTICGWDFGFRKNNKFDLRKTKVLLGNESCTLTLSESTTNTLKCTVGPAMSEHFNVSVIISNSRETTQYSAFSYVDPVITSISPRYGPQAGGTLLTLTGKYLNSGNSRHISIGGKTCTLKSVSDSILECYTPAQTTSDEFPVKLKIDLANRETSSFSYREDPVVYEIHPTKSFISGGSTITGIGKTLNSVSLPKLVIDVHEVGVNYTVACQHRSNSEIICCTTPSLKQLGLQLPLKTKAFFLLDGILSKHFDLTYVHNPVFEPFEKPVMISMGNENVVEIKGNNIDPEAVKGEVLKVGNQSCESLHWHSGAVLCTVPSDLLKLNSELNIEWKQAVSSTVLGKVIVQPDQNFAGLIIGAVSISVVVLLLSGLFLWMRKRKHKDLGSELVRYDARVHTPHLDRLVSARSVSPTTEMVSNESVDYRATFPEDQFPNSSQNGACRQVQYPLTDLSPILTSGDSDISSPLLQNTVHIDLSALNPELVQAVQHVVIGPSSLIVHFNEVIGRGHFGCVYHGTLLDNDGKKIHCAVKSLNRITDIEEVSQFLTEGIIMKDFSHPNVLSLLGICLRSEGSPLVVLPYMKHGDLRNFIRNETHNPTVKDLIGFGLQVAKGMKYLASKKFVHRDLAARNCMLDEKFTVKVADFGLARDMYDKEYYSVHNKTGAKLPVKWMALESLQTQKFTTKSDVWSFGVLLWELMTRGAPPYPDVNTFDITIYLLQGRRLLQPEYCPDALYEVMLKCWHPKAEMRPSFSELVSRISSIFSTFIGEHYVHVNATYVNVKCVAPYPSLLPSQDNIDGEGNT

B1: JNJ-61186372 (bispecific antibody, human IgG1, kappa)
heavy 1: not shown
light 1: not shown
heavy 2: not shown
light 2: DIQMTQSPSSVSASVGDRVTITCRASQGISNWLAWFQHKPGKAPKLLIYAASSLLSGVPSRFSGSGSGTDFTLTISSLQPEDFATYYCQQANSFPITFGQGTRLEIKRTVAAPSVFIFPPSDEQLKSGTASVVCLLNNFYPREAKVQWKVDNALQSGNSQESVTEQDSKDSTYSLSSTLTLSKADYEKHKVYACEVTHQGLSSPVTKSFNRGEC
notes: also called CNTO4424
Q: Which results are given for B1?
A: binding result [1]: no binding; binding result [2]: no binding
